pIC50: −log10 of the molar value. A value given as a limit tells only on which side of the number the result lay.

IC50 data for 23 sequences are collected here from the Immune Epitope Database (IEDB).

Targets include HLA-A*02:02; HLA-A*02:01; HLA-A*02:03; HLA-A*02:06; HLA-A*68:02.
Holding throughout (assay): IEDB peptide-MHC binding, cellular MHC/competitive/fluorescence; ≥ and ≤ were set here for values at or beyond the usual limits of such assays
Where [1] appears, read: source organism: Mammarenavirus choriomeningitidis.
[2] abbreviates: source organism: Influenza A virus.
[3] abbreviates: source organism: Vaccinia virus WR.

As to SNSEDLLKAV, the pIC50 in the assay with HLA-A*02:02 (setting [1]) is 4.75; with HLA-A*02:01 (setting [1]), 5.11; with HLA-A*02:03 (setting [1]), 4.82; with HLA-A*02:06 (setting [1]), 5.00; in the assay with HLA-A*68:02 (setting [1]), 4.37.

Turning to ILLRAFTEEGA, the pIC50 is 5.02 with HLA-A*02:02 (setting [2]); 4.92 with HLA-A*02:01 (setting [2]); 4.58 with HLA-A*02:03 (setting [2]); 4.58 with HLA-A*02:06 (setting [2]); not above 4.15 with HLA-A*68:02 (setting [2]).

In the case of ELEKCTSEI, the pIC50 with HLA-A*02:02 (setting [3]) is 4.68; in the assay with HLA-A*02:01 (setting [3]), 4.61; in the assay with HLA-A*02:03 (setting [3]) it was 4.25; in the assay with HLA-A*02:06 (setting [3]) it was 4.24; with HLA-A*68:02 (setting [3]), 4.61.

On to PTIEDDKIVT, for which the pIC50 with HLA-A*02:02 (setting [3]) was 4.86; with HLA-A*02:01 (setting [3]) it was not above 4.15; with HLA-A*02:03 (setting [3]), 4.69; in the assay with HLA-A*02:06 (setting [3]) it was not above 4.15; in the assay with HLA-A*68:02 (setting [3]), not above 4.15.

Regarding GLQSSDDFA, the pIC50 with HLA-A*02:02 (setting [2]) is 4.94; with HLA-A*02:01 (setting [2]), 5.10; with HLA-A*02:03 (setting [2]) it was 4.73; in the assay with HLA-A*02:06 (setting [2]) it was not above 4.15; with HLA-A*68:02 (setting [2]), not above 4.15.

For the sequence QTGINNVQSL, the pIC50 with HLA-A*02:02 (setting [3]) is 4.69; in the assay with HLA-A*02:01 (setting [3]) it was 4.32; with HLA-A*02:03 (setting [3]) it was 4.61; in the assay with HLA-A*02:06 (setting [3]), 4.27; in the assay with HLA-A*68:02 (setting [3]), 4.94.

With EIITGNKVKT, the pIC50 in the assay with HLA-A*02:02 (setting [3]), with HLA-A*02:01 (setting [3]), with HLA-A*02:03 (setting [3]), in the assay with HLA-A*02:06 (setting [3]) and with HLA-A*68:02 (setting [3]) was not above 4.15 in each case.

Turning to CLEAKTHFST, the pIC50 is 4.91 with HLA-A*02:02 (setting [3]); 4.30 in the assay with HLA-A*02:01 (setting [3]); 4.96 with HLA-A*02:03 (setting [3]); not above 4.15 with HLA-A*02:06 (setting [3]); not above 4.15 in the assay with HLA-A*68:02 (setting [3]).

As for ATYQRTRA, the negative-log IC50 (pIC50) in the assay with HLA-A*02:02 (setting [2]), with HLA-A*02:01 (setting [2]), with HLA-A*02:03 (setting [2]), with HLA-A*02:06 (setting [2]) and with HLA-A*68:02 (setting [2]) was not above 4.15 throughout.

For AINKCVDIFT, the pIC50 with HLA-A*02:02 (setting [3]) is 4.60; with HLA-A*02:01 (setting [3]), 4.80; with HLA-A*02:03 (setting [3]), 4.58; in the assay with HLA-A*02:06 (setting [3]) it was 4.41; in the assay with HLA-A*68:02 (setting [3]), 4.41.

Take VTKSSSWKDV: the pIC50 with HLA-A*02:02 (setting [3]) was not above 4.15; with HLA-A*02:01 (setting [3]), not above 4.15; in the assay with HLA-A*02:03 (setting [3]), 4.38; in the assay with HLA-A*02:06 (setting [3]), not above 4.15; with HLA-A*68:02 (setting [3]), 4.39.

Turning to PAHLINKLL, the pIC50 is 5.17 with HLA-A*02:02 (setting [3]); 4.95 with HLA-A*02:01 (setting [3]); 5.20 with HLA-A*02:03 (setting [3]); 4.37 with HLA-A*02:06 (setting [3]); 4.95 with HLA-A*68:02 (setting [3]).

With DVKVLAARL, the pIC50 with HLA-A*02:02 (setting [3]) was 5.21; in the assay with HLA-A*02:01 (setting [3]), 4.92; with HLA-A*02:03 (setting [3]), 4.97; in the assay with HLA-A*02:06 (setting [3]), 5.00; in the assay with HLA-A*68:02 (setting [3]), 5.10.

For the sequence PAEMLASI, the pIC50 with HLA-A*02:02 (setting [2]), in the assay with HLA-A*02:01 (setting [2]), with HLA-A*02:03 (setting [2]), in the assay with HLA-A*02:06 (setting [2]) and with HLA-A*68:02 (setting [2]) was not above 4.15 throughout.

SAAFEDLRL: the negative logarithm of the IC50 (pIC50) in the assay with HLA-A*02:02 (setting [2]) was 4.81; in the assay with HLA-A*02:01 (setting [2]) it was not above 4.15; with HLA-A*02:03 (setting [2]) it was 5.03; with HLA-A*02:06 (setting [2]) it was 4.51; with HLA-A*68:02 (setting [2]) it was 4.57.

As to KIQLFSDFTI, the pIC50 with HLA-A*02:02 (setting [3]), in the assay with HLA-A*02:01 (setting [3]), with HLA-A*02:03 (setting [3]), in the assay with HLA-A*02:06 (setting [3]) and in the assay with HLA-A*68:02 (setting [3]) was not above 4.15 in each case.

Take GVEVRYIDI: the pIC50 with HLA-A*02:02 (setting [3]) is 4.92; with HLA-A*02:01 (setting [3]), 4.78; in the assay with HLA-A*02:03 (setting [3]) it was 4.34; with HLA-A*02:06 (setting [3]), 4.99; with HLA-A*68:02 (setting [3]), not above 4.15.

As to SADNHPKMI, the pIC50 is 5.09 with HLA-A*02:02 (setting [3]); 4.84 with HLA-A*02:01 (setting [3]); 4.36 in the assay with HLA-A*02:03 (setting [3]); not above 4.15 with HLA-A*02:06 (setting [3]); not above 4.15 with HLA-A*68:02 (setting [3]).

Consider PAEMLANI, for which the pIC50 with HLA-A*02:02 (setting [2]), with HLA-A*02:01 (setting [2]), with HLA-A*02:03 (setting [2]), in the assay with HLA-A*02:06 (setting [2]) and in the assay with HLA-A*68:02 (setting [2]) was not above 4.15 in each case.

Take AAFEDLRL: the pIC50 in the assay with HLA-A*02:02 (setting [2]) was 4.76; in the assay with HLA-A*02:01 (setting [2]), not above 4.15; in the assay with HLA-A*02:03 (setting [2]), 4.31; with HLA-A*02:06 (setting [2]), 4.33; with HLA-A*68:02 (setting [2]) it was 4.22.

Regarding KTEHCDDFMT, the pIC50 with HLA-A*02:02 (setting [3]) is 5.11; with HLA-A*02:01 (setting [3]), 5.12; with HLA-A*02:03 (setting [3]) it was 4.42; with HLA-A*02:06 (setting [3]) it was 4.94; with HLA-A*68:02 (setting [3]), not above 4.15.

Regarding LTGNNTITT, the pIC50 is 5.24 with HLA-A*02:02 (setting [3]); 4.95 in the assay with HLA-A*02:01 (setting [3]); 5.25 with HLA-A*02:03 (setting [3]); 5.06 in the assay with HLA-A*02:06 (setting [3]); 5.08 with HLA-A*68:02 (setting [3]).

In the case of PLTGNNTITT, the pIC50 is 5.12 with HLA-A*02:02 (setting [3]); not above 4.15 with HLA-A*02:01 (setting [3]); 4.53 in the assay with HLA-A*02:03 (setting [3]); not above 4.15 with HLA-A*02:06 (setting [3]); 4.31 with HLA-A*68:02 (setting [3]).

As a reminder, the pIC50 is the negative decadic logarithm of the IC50, by convention in mol/L. Read a low pIC50 as a high IC50.
